Measured values taken from patent publication US20100322948A1, “Bone morphogenetic protein (BMP)-binding domains of proteins of the repulsive guidance molecule (RGM) protein family and functional fragments thereof, and use of same” (ABBOTT GMBH & CO. KG, priority 2007, published 2010).
“Also recorded” adds a separate entry of the source.

What was measured:
[1] = biological target: T1, BMP-2 (Homo sapiens, UniProt P12643); assay: In vitro interaction test, variant B: immobilized RGMA-Fc fusion proteins, detection of BMP-2 binding; settings: Working Example 2, FIG. 4, anti-BMP-2 biotin antibodies
T1 construct: purchased R&D Systems 355-BM; host or cells: CHO cells (said of #355-BM in the BRE-Luc section)
T1 sequence (P12643 283-396): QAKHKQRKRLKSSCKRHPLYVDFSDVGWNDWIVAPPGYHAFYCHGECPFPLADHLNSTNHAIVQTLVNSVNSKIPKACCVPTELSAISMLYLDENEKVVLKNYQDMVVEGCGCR
Procedure: (§1) Test Method 4: In Vitro Interaction Test for Determining the Interaction between RGMA and BMP-2 and -4
(§2) The interaction tests were carried out as described below:
(§3) Variant B: Immobilization of Various RGMA-Fc Fusion Proteins and Detection of the Binding of the BMP-2/ or -4 Protein
(§4) Immunoplate Cert. MaxiSorp F96 (Nunc, 439454)
(§5) RGMA-Fc fragments • Volume used: 2.5 μg/mL in Na2CO3; addition: 50 μL per well • 1 hour at 37° C. in damp chamber
(§6) 3. Washing step: • Wash 3× with PBS/0.02% Tween 20
(§7) 4. Blocking: • 3% BSA in PBS/0.02% Tween, 1 hour at 37° C. in damp chamber • Addition : 200 μL per well, incubation: 1 hour at 37° C. in damp chamber
(§8) Recombinant human BMP-2, Catalog No.: 355-BM, Company: R&D Systems; or
(§9) Recombinant human RGM A, R&D Systems; Prod. #2495-RM,
(§10) recombinant human BMP-4, Catalog No.: 314-BM, Company: R&D Systems;
(§11) Concentration in each case: 10 μg/mL
(§12) Dilution steps: in each case 1:2 with PBS/0.02% Tween 20
(§13) 6. Washing step: • Wash 3× with PBS/0.02% Tween 20
(§14) Anti-human BMP-4 biotin antibody; Catalog No.: BAM7572, 1:200 in 1% BSA-PBS-T
(§15) 8. Washing step: • Wash 3× with PBS/0.02% Tween 20
10. Washing step: • Wash 3× with PBS/0.02% Tween 20 […]
(§16) The test was conducted according to test method 4, variant B above, with immobilization of the fusion proteins (1 mg/mL). The binding of BMP-4 and -2 was detected using anti-BMP-4 and anti-BMP-2 biotin antibodies, respectively.

[2] = test system: BMP signalling (rhBMP-2-induced luciferase activity); assay: BRE-Luc assay on BMP signalling in BMP-responsive C3H10-B12 cells; format: cell-based
Procedure: Evaluation of the Agonistic or Antagonistic Effect of h RMG A on BMP Signalling using BRE-Luc Assay
a) Materials: • Three compounds were provided at 200 μg/ml.
fragment #788 (IgK/hRGM A 47-422/Xa cleavage site/Fc) • recombinant h BMP-2 (from CHO cells; #355-BM) and monoclonal anti-human BMP2/4 antibodies (#MAB3552) were obtained from R&D Systems Europe, Lille, France • Bright-Glo Luciferase assay kit were purchased from Promega
All experiments were performed in triplicate, and were repeated at two separate times.

[3] = biological target: T2, BMP-4 (Homo sapiens, UniProt P12644); assay: In vitro interaction test, variant B: immobilized RGMA-Fc fusion proteins, detection of BMP-4 binding
T2 construct: purchased R&D Systems 314-BM
T2 sequence (P12644 293-408): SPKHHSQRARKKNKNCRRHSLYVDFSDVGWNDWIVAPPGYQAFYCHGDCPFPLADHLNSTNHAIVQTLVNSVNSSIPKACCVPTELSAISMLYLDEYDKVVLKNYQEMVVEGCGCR
Procedure: as §1, §2, §3, §4, §5, §6, §7, §8, §9, §10, §11, §12, §13, §14, §15
10. Washing step: • Wash 3× with PBS/0.02% Tween 20
ImmunoPure TMB substrate kit; (Pierce, #34021) • Development period: approximately 1-30 minutes • 1:1 mixture of […]; addition: 50 μL per well
12. Stop: • 2.5 M H2SO4; addition: 50 μL per well
The test was conducted according to test method 4, variant B above, with immobilization of the fusion proteins (1 mg/mL). The binding of BMP-4 was detected using anti-BMP-4 biotin antibodies.
as §16

binding of BMP-2 [1]: more significant binding
binding of BMP-4 ([3]; Working Example 1, FIG. 3, anti-BMP-4 biotin antibodies): more significant binding
binding of BMP-4 ([3]; Working Example 2, FIG. 4, anti-BMP-4 biotin antibodies): more significant binding
B1: fragment #786: Fc fusion protein of human RGM A amino acids 47-168 (protein)
chain: PCKILKCNSEFWSATSGSHAPASDDTPEFCAALRSYALCTRRTARTCRGDLAYHSAVHGIEDLMSQHNCSKDGPTSQPRLRTLPPAGDSQERSDSPEICHYEKSFHKHSATPNYTHCGLFGD
modifications: left off: small tags and cut ends; a dimerising Fc or GST
effect on BMP-2-induced luciferase activity ([2]; combined with rhBMP-2 at 50 ng/ml, 24 h, listed as #786): dose-dependent inhibition; also recorded: inhibited the rhBMP-2-induced activity in a dose dependent fashion
inhibition of the rhBMP-2-induced activity ([2]; compounds at 10 μg/ml, rhBMP-2 at 50 ng/ml): 88%
equivalent dose for 50% of inhibition (ED50) ([2]; rhBMP-2 at 50 ng/ml): 0.1 µg/mL
